{"source": "patent US20110117086A1", "about": "(LES LABORATOIRES SERVIER, published 2011)", "binders": {"B1": {"name": "Anti-hPG MAb 8 (antibody, V domains shown)", "VH": "EVQLVESGGGLVKPGGSLKLSCAASGFTFTTYAMSWVRQTPEKRLEWVATISSGGTYTYYPDSVKGRFTISRDNAKNALYLQMSSLRSEDTAMYYCATQGNYSLDFWGQGTSLTVSS", "VL": "DIVMTQAASSNPVTLGTSASISCRSSKSLRHTKGITFLYWYLQKPGQSPQLLIYQMSNLASGVPDRFSSSGSGTDFTLRISRVEAEDLGVYYCAQNLELPLTFGAGTKLELK", "notes": "Mouse IgG1, hybridoma 1C10D3B9, raised against immunogen C1; also called 1C10D3B9"}, "B2": {"name": "Anti-hPG MAb 13 (antibody, V domains shown)", "VH": "EVQLVESGGGLVQPGGSLKLSCAASGFIFSSYGMSWVRQSPDRRLELVASINTFGDRTYYPDSVKGRFTISRDNAKNTLYLQMTSLKSEDTAIYYCARGTGTYWGQGTTLTVSS", "VL": "not shown", "notes": "Mouse IgG1, hybridoma 2C6C3C7, raised against immunogen C1; also called 2C6C3C7"}, "B3": {"name": "Anti-hPG MAb 16 (antibody, V domains shown)", "VH": "QVQLQQSGAELVKPGASVKLSCKASGYTFTSYYMYWVKQRPGQGLEWIGEINPSNGGTNFNEKFKSKATLTVDKSSSTAYMQLSSLTSEDSAVYYCTRGGYYPFDYWGQGTTLTVSS", "VL": "not shown", "notes": "Mouse IgG1, hybridoma 1E9D9B6, raised against immunogen N2; also called 1E9D9B6"}, "B4": {"name": "Anti-hPG MAb 19 (antibody, V domains shown)", "VH": "DVQLQESGPGLVKPSQSLSLTCTVTGYSITSDYAWNWIRQFPGNKLEWMGYISFSGYTSYNPSLKSRISVTRDTSRNQFFLQLTSVTTEDTATYYCAREVNYGDSYHFDYWGQGTIVTVSS", "VL": "QLALTQSSSASFSLGASAKLTCTLSSQHRTYTIEWYQQQSLKPPKYVMEVKKDGSHSTGHGIPDRFSGSSSGADRYLSISNIQPEDEAIYICGVGDAIKGQSVFVFGGGTKVTVL", "notes": "Mouse IgG2, hybridoma 1B3B4F11, raised against immunogen N2; also called 1B3B4F11"}, "B5": {"name": "Anti-hPG MAb 4 (antibody, V domains shown)", "VH": "QVQLQQSGAELMKPGASVKISCKATGYTFSSSWIEWLKQRPGHGLEWIGEFLPGSGSTDYNEKFKGKATFTADTSSDTAYMLLSSLTSEDSAVYYCATDGNYDWFAYWGQGTLVTVSA", "VL": "DLVMTQTPLSLPVSLGDQASISCRSSQSLVHSSGVTYLHWYLQKPGQSPKLLIYKVSNRFSGVPDRFSGSGSGTDFTLKISRVEAEDLGVYFCSQSTHVPPTFGSGTKLEIK", "notes": "Mouse IgG1, hybridoma 20D2C3G2, raised against immunogen N2; also called 20D2C3G2"}, "B6": {"name": "Anti-hPG MAb 3 (antibody, V domains shown)", "VH": "EVQLQQSGTVLARPGASVKMSCKASGYIFTSYWVHWVKQRPGQGLEWIGGFYPGNSDSRYNQKFKGKATLTAVTSASTAYMDLSSLTNEDSAVYFCTRRDSPQYWGQGTTLTVSS", "VL": "DVLMTQTPLSLPVSLGDQASISCRSSQSIVHSNGNTYLEWYLQKPGQSPKLLIYKVSNRFSGVPDRFSGSGSGTDFTLKISRLEAEDLGVYYCFQGSHVPFTFGGGTKLEIK", "notes": "Mouse IgG1, hybridoma 6B5B11C10, raised against immunogen N2; also called 6B5B11C10"}}, "key": {"[1]": {"target": "T1, Recombinant human progastrin (human, UniProt P01350 22-101)", "T1 sequence": "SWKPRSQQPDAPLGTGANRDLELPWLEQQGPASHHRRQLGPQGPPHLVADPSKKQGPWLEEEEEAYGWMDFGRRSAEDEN", "assay": "cell-based or functional assay"}, "[2]": {"target": "T1, Recombinant human progastrin", "assay": "SPR (Proteon), MAb captured on anti-mouse IgG, hPG injected", "method": "To provide a more absolute quantification of affinity for the monoclonal antibodies, affinity constants were measured using the Proteon Technique (BioRad), according to Nahshol et al., 2008, Analytical Biochemistry 383:52-60, hereby incorporated by reference in its entirety. Briefly, an anti-mouse IgG antibody (50 μg/ml) was first coated on a sensor chip, making sure that the signal detected by the chip after injection of the antibody falls between 10,000 and 11,500 RU (response units). The murine monoclonal antibody to be tested was then injected (typical concentrations: 30 μg/ml). Sufficient binding of the antibody to be tested was determined based on a further signal of at least 500 RU on the sensor chip. A time-course of interaction between monoclonal anti-progastrin antibodies and progastrin was then measured by injecting varying concentrations of progastrin, for example 200, 100, 50, 25, and 12.5 nM, and the level of association detected. Typically, several channels are available to test multiple antibodies in parallel in a single experiment, making it possible to assay binding of test antibodies at varying concentrations of PG in parallel. Typically, one channel is reserved for a murine monoclonal antibody that is not specific to PG, as a control for non-specific binding, and another channel is injected with dilution buffer alone as a baseline for the background signal. Generally, no binding is detectable in the channels injected with non-specific murine antibody. Antibodies displaying a high level of association in this setting, which may result in saturation of the trapped monoclonal antibody by progastrin, can be tested against lower progastrin concentrations (50, 25, 12.5, 6.25 and 3.125 nM), allowing for a more refined measurement.\nAffinity constants (KD) were calculated as the ratio between the dissociation constant (kd) and the association constant (ka). Experimental values were validated by analyzing the statistically relevant similarity between experimental curves based on binding measurements and theoretical profiles. The mathematical model used in the Proteon experiments to select whether experimental curves fit with the theoretical model was the Langmuir model, based on a 1:1 interaction between progastrin molecules and anti-progastrin monoclonal antibodies."}, "[3]": {"target": "T1, Recombinant human progastrin", "assay": "cell-based or functional assay", "remark": "listed apart in the source"}, "[4]": {"target": "T1, Recombinant human progastrin", "assay": "cell-based or functional assay", "remark": "listed apart in the source"}, "[5]": {"target": "T1, Recombinant human progastrin", "assay": "cell-based or functional assay", "remark": "listed apart in the source"}, "[6]": {"target": "T1, Recombinant human progastrin", "assay": "ELISA on 50 ng coated hPG, antibody titrated, OD 492 nm, n=2", "method": "After blocking, the wells were washed three times and the primary antibody—the antibody to be assayed—added. For initial screening of fused splenocytes, 50 μL of culture supernatant from each culture to be assayed was added to each well in the plate. In assays performed on monoclonal antibodies, 100 μL of the test antibody in PBS and 0.1% Tween-20 was added to each well. Plates were then incubated for 2 hours at 22° C., after which the primary antibody solution was discarded and replaced, after a wash step (3×100 μL wash solution, as noted above), with blocking solution containing the secondary antibody, which binds the primary antibody and is coupled to an enzyme. The secondary antibody was a goat anti-mouse IgG (Fc) antibody coupled to horseradish peroxidase. […] The reaction was then stopped by adding 50 μL of 4N sulfuric acid and the amount of substrate catalyzed determined by measuring the optical density (O.D.) at 492 nm. […] Samples were scored as positive for anti-PG antibodies if the measured O.D. was between 0.2 and 1.5. […]\nRelative affinity of exemplary monoclonal antibodies was measured using the ELISA method described above, in which wells were coated with a peptide solution containing 50 ng progastrin and then incubated in the presence of increasing concentrations of each monoclonal antibody as follows: […]"}, "[7]": {"target": "T2, Immunogen N2 = SWKPRSQQPDAPLG Ahx Cys KLH (human)", "T2 construct": "hPG residues 1 to 14 with linker, coupled to the KLH carrier; also called KLH-linked N-terminal peptide", "T2 peptide": "SWKPRSQQPDAPLG[Ahx]C-{KLH}", "assay": "ELISA of hybridoma supernatants"}, "[8]": {"target": "T1, Recombinant human progastrin", "assay": "competition ELISA: hPG captured by a C-terminal polyclonal antibody; MAb 3 titrated against 10 µg/ml biotinylated N-terminal anti-hPG polyclonal antibody; streptavidin-HRP, luminescence, n=2", "method": "The ability of an anti-hPG monoclonal antibody to compete with an anti-hPG polyclonal antibody for binding to progastrin was determined using an ELISA with a “capture” anti-hPG antibody and a “detection” anti-hPG antibody. Anti-hPG MAb 3 was assayed as follows: 96-well plates were pre-coated with C-terminal progastrin polyclonal antibodies raised against a peptide consisting of residues 71 to 80 of hPG. The plates were then incubated with […] progastrin was incubated, followed by addition of 10 μg/ml biotinylated N-terminal anti-hPG polyclonal antibody, raised against a peptide consisting of the amino acid sequence of SEQ ID NO:25, and increasing concentrations of anti-hPG MAb 3 monoclonal antibody. Binding of the biotinylated N-terminal anti-hPG polyclonal antibody was detected by incubating the plates with streptavidin-HRP followed by OPD, according to standard protocols. Binding was measured by quantifying luminescence."}}, "note": "“And” between values parts separate entries of the source, which are not always exact repeats. Equal values may be shown once. Non-standard residues stand in square brackets, D forms with d. No end group written: not given here. KLH = keyhole limpet hemocyanin; Ahx = NCCCCCC(=O)O", "data": [{"binder": "B1", "values": [{"measurement": "surviving HCT-116 cells, % of control MAb-treated cells (cell numbers - T0)", "setting": "[1]", "result": "62 % of control"}, {"measurement": "Kd", "setting": "[2]", "result": "0.1 nM and 0.108 nM"}, {"measurement": "viable LS174T cells (CellTiter 96 absorbance at 490 nm), % of control MAb; anti-hPG MAb 8 pre-incubated with 20-fold molar excess hPG", "setting": "[3]", "result": "148 % of control"}, {"measurement": "surviving LS 174T cells, % of control MAb-treated cells (cell numbers - T0)", "setting": "[4]", "result": "42 % of control"}, {"measurement": "surviving SW 620 cells, % of control MAb-treated cells (cell numbers - T0)", "setting": "[5]", "result": "40 % of control"}]}, {"binder": "B2", "values": [{"measurement": "surviving HCT-116 cells, % of control MAb-treated cells (cell numbers - T0)", "setting": "[1]", "result": "36 % of control"}, {"measurement": "Kd", "setting": "[2]", "result": "0.6 nM and 0.612 nM"}, {"measurement": "surviving LS 174T cells, % of control MAb-treated cells (cell numbers - T0)", "setting": "[4]", "result": "58 % of control"}, {"measurement": "surviving SW 620 cells, % of control MAb-treated cells (cell numbers - T0)", "setting": "[5]", "result": "48 % of control"}]}, {"binder": "B3", "values": [{"measurement": "Kd", "setting": "[2]", "result": "0.2 nM and 0.278 nM"}, {"measurement": "EC50 (read off the curve)", "setting": "[6]", "result": "~2", "unit": "ng/mL"}, {"measurement": "surviving LS 174T cells, % of control MAb-treated cells (cell numbers - T0)", "setting": "[4]", "result": "61 % of control"}, {"measurement": "surviving SW 620 cells, % of control MAb-treated cells (cell numbers - T0)", "setting": "[5]", "result": "58 % of control"}]}, {"binder": "B4", "values": [{"measurement": "surviving HCT-116 cells, % of control MAb-treated cells (cell numbers - T0)", "setting": "[1]", "result": "88 % of control"}, {"measurement": "Kd", "setting": "[2]", "result": "0.7 nM and 0.779 nM"}, {"measurement": "surviving LS 174T cells, % of control MAb-treated cells (cell numbers - T0)", "setting": "[4]", "result": "84.5 % of control"}, {"measurement": "surviving SW 620 cells, % of control MAb-treated cells (cell numbers - T0)", "setting": "[5]", "result": "69 % of control"}]}, {"binder": "B5", "values": [{"measurement": "Kd", "setting": "[2]", "result": 3.5, "unit": "nM"}, {"measurement": "EC50 (read off the curve)", "setting": "[6]", "result": "~8", "unit": "ng/mL"}, {"measurement": "binding result", "setting": "[7]", "result": "binds"}]}, {"binder": "B6", "values": [{"measurement": "Kd", "setting": "[2]", "result": 6.4, "unit": "nM"}, {"measurement": "IC50 (read off the curve)", "setting": "[8]", "result": "~4000", "unit": "ng/mL"}, {"measurement": "binding result", "setting": "[7]", "result": "binds"}]}]}
